The text below walks through data of publication PMC11741606.

pKd: −log10 of the molar value.

Experiment [1] concerns the target chicken aminopeptidase N ectodomain fused with the Fc domain of human IgG (chicken (Gallus gallus)) (UniProt O57579). Description: SPR; hFc-tagged APN from concentrated supernatant captured on a protein A sensor chip (>1000 RU); serially diluted RBD flowed over in PBST; BIAcore 8K, single-cycle mode; 1:1 Langmuir model; mean ± SD of three experiments. For orientation: In SPR one partner is held on a chip, and binding of the other changes the refractive index at the surface.

Experiment [2] has as its target dog aminopeptidase N ectodomain fused with the Fc domain of human IgG (dog (Canis lupus familiaris)) (UniProt P79143). The description is as above.
Experiment [3] addresses pig aminopeptidase N ectodomain fused with the Fc domain of human IgG (pig (Sus scrofa)) (UniProt P15145). The experiment is described as above.
Experiment [4] has as its target PDCoV RBD (receptor-binding domain of the porcine deltacoronavirus spike protein). Description: SPR.

pig aminopeptidase N ectodomain fused with the Fc domain of human IgG (pig (Sus scrofa)), sequence (P15145 33-963): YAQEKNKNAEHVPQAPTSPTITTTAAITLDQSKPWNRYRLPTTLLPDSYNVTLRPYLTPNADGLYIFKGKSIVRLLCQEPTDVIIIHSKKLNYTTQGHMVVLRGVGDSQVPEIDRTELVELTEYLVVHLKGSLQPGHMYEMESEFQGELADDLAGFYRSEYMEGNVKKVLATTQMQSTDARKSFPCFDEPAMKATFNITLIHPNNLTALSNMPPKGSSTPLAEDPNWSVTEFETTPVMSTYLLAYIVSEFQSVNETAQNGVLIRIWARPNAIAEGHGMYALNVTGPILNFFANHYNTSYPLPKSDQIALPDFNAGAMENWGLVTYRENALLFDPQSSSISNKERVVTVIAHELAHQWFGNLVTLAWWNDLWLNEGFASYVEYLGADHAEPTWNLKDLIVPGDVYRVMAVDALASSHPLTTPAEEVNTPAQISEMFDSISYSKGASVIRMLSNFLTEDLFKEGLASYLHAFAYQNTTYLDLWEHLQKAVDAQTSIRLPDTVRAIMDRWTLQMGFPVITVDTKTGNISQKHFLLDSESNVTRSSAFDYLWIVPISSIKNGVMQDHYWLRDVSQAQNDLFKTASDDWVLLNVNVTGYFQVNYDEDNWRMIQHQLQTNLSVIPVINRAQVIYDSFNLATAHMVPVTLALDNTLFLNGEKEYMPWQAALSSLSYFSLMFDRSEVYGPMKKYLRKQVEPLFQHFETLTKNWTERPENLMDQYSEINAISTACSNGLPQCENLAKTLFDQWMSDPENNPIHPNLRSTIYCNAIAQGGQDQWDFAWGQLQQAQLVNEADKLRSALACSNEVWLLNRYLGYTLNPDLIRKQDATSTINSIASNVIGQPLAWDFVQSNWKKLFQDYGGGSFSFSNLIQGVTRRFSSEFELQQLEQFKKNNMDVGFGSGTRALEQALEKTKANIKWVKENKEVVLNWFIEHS
chicken aminopeptidase N ectodomain fused with the Fc domain of human IgG (chicken (Gallus gallus)), sequence (O57579 32-972): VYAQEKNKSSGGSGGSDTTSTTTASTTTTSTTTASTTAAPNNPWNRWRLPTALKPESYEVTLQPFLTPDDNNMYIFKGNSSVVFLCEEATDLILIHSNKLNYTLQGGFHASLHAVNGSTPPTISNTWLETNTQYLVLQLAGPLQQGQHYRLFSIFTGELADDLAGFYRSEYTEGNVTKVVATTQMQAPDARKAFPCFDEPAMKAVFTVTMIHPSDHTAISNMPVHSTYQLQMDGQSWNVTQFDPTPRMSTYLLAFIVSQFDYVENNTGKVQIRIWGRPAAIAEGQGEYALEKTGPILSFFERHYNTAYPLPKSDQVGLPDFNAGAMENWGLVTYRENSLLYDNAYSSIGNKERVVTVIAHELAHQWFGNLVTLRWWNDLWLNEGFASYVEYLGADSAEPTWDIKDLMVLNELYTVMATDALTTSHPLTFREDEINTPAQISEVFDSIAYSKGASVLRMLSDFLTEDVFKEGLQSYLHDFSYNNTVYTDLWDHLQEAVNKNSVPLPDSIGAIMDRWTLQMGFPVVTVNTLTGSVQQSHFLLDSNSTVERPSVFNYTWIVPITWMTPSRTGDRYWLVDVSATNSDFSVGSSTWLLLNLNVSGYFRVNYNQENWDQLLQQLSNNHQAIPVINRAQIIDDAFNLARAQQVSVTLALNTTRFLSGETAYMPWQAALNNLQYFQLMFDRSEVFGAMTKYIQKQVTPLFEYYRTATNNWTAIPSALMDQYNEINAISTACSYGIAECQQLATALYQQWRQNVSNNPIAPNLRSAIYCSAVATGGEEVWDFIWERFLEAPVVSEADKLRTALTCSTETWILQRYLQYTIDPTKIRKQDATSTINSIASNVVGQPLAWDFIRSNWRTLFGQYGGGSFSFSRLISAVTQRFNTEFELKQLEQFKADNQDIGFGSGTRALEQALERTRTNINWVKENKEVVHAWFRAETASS

In the case of “PDCoV RBD (receptor-binding domain of the porcine deltacoronavirus spike protein) (domain or fragment)”, the values for the pKd in experiment [1], in experiment [2] and in experiment [3] were 5.52, 6.08 and 4.89, respectively.
As to “TGEV RBD (receptor-binding domain of the transmissible gastroenteritis coronavirus spike protein) (domain or fragment)”, the pKd – broadly, −log10 of the Kd, conventionally taken in molar units – is 7.70 in experiment [2] and 5.56 in experiment [3].
In turn, “dog aminopeptidase N ectodomain fused with the Fc domain of human IgG (from UniProt P79143) D750E” gave a pKd in experiment [4] of 6.83.
Same read-out and setting: for “dog aminopeptidase N ectodomain fused with the Fc domain of human IgG (from UniProt P79143) E757D” the value was 6.37; for “dog aminopeptidase N ectodomain fused with the Fc domain of human IgG (from UniProt P79143) H751R”, 5.84.
Still for that read-out and setting: for “dog aminopeptidase N ectodomain fused with the Fc domain of human IgG (from UniProt P79143) Q753E” the value was 6.11; for “dog aminopeptidase N ectodomain fused with the Fc domain of human IgG (from UniProt P79143) R325N”, 4.98; for “dog aminopeptidase N ectodomain fused with the Fc domain of human IgG (from UniProt P79143) T754N”, 5.39.
On the same count and under the same terms, under “dog aminopeptidase N ectodomain fused with the Fc domain of human IgG (from UniProt P79143) Y375F” stands 6.46; under “dog aminopeptidase N ectodomain fused with the Fc domain of human IgG (from UniProt P79143) Y797H”, 5.91.
